Test results from patent US7785825B2, “Compositions and methods for dehydration and cyclization of peptides, synthetic compounds, and lantibiotics” (priority 2004, dated 2010).

How the values were obtained:
[1] = target: LctM (Lactococcus lactis subsp. lactis, UniProt P37609); assay: LctM activity assay: dehydration and cyclization of peptide substrates, read out by MS; assay type: biochemical, Lactococcus lactis CNRZ 481; settings: for effect on LctM processing of His6-LctA: ATP analog in place of ATP, EDTA added; for number of dehydrations after incubation with LctM: MALDI-MS / ESI-FTMS of product
Sequence of LctM (P37609 whole entry): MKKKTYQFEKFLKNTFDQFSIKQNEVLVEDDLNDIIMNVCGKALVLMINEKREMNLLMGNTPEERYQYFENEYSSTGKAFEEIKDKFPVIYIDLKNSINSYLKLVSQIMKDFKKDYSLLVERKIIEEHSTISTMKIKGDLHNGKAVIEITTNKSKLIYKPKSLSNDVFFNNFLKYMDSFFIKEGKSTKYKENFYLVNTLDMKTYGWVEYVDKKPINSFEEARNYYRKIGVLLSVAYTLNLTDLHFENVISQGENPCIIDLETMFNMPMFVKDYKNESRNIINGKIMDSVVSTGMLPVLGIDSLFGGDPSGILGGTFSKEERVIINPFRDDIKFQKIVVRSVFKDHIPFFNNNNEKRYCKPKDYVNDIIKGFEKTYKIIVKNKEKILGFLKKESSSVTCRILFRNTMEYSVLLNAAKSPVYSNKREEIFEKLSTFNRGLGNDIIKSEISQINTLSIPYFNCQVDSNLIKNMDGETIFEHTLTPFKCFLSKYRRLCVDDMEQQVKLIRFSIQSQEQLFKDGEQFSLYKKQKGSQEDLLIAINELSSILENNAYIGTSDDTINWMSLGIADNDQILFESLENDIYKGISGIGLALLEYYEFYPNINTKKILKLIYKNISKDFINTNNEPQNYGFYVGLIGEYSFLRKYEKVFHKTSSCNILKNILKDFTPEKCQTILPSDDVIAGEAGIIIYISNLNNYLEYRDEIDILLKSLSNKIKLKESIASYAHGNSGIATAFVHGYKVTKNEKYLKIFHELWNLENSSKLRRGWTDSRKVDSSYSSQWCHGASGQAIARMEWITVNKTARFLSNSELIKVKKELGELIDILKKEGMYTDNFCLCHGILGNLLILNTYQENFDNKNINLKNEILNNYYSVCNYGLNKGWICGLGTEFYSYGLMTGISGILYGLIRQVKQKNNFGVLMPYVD
From the text: For MALDI MS analysis, 1 microL of the assay sample was mixed with 9 microL of sinapinic acid pre-dissolved in MeCN:H2O (2:1) in 0.1% TFA and 1 microL of the mixture was applied on the MALDI target. MALDI MS calcd. […] ESI-FT-MS for the major product: mass calcd.

[2] = target: LctRumA (Artificial Sequence)
[3] = target: His6-LctA (Lactococcus lactis CNRZ 481)
[4] = target: LctMutA (Artificial Sequence)
[5] = target: LctMutAK (Artificial Sequence)
[6] = target: His6-LctA-T48S (Lactococcus lactis CNRZ 481)
[7] = target: MutA (His-tagged mutacin II prepeptide) (Artificial)
[8] = test system: methicillin-resistant Staphylococcus aureus (MRSA); settings: cited from earlier work
[9] = test system: L. lactis CNRZ 117; assay: Bioassay for lantibiotic activity (solid agar diffusion); assay type: cell-based, Lactococcus lactis; settings: agar diffusion assay, lacticin 481-sensitive indicator strain L. lactis CNRZ 117
Experimental: The lyophilized assay product (˜0.1 microg) was redissolved in 6 microL of Millipore water. To the solution, 4 microL of a solution of Lys-C in 100 mM Tris, pH 8.5 (0.4 ng/microL) was added and the mixture was incubated at 37° C. for 3 h. The resulting mixture was checked by MALDI-TOF MS. Three fragments were expected and two were observed: calcd, 2310 ([1-21]), 2591 ([22-44]), 2773 ([45-70]); found, 2593 ([22-44]), 2775 ([45-70]).
Inhibitory activity was assayed by the solid agar medium test. A GM17 agar plate was seeded with the test strain by mixing 100 mL of liquid GM17 agar at 50° C. with 1.5 mL of an overnight culture. After agar solidification, wells were created in the medium and the samples were added to the wells. The activity of the starting peptide, LctM-product, and the product and starting peptide treated with Lys-C were determined using a solid agar diffusion bioassay with indicator strain L. lactis CNRZ 117 (See FIG. 5).
FIG. 5 illustrates a bioassay for lantibiotic activity. Small aliquots of the following samples were added in the wells: (1) His6-LctA (SEQ ID NO:4), (2) His6-LctA treated with Lys-C, (3) His6-LctA modified by LctM, (4) His6-LctA modified by LctM and treated with Lys-C, (5) cell free broth of L. lactis CNRZ 117, (6) cell free broth of L. lactis CNRZ 481 containing lacticin 481, (7) 50 mM Tris buffer, pH 8.5, (8) Lys-C in 50 mM Tris buffer, pH 8.5.

[10] = target: T1, protease domain of LctT (GST-Lpd) (Lactococcus lactis subsp. lactis, UniProt P37608); assay: Leader cleavage by the LctT protease domain (GST-Lpd); assay type: biochemical, Lactococcus lactis CNRZ 481; settings: MALDI-TOF MS
T1 sequence (P37608 whole entry, looked up): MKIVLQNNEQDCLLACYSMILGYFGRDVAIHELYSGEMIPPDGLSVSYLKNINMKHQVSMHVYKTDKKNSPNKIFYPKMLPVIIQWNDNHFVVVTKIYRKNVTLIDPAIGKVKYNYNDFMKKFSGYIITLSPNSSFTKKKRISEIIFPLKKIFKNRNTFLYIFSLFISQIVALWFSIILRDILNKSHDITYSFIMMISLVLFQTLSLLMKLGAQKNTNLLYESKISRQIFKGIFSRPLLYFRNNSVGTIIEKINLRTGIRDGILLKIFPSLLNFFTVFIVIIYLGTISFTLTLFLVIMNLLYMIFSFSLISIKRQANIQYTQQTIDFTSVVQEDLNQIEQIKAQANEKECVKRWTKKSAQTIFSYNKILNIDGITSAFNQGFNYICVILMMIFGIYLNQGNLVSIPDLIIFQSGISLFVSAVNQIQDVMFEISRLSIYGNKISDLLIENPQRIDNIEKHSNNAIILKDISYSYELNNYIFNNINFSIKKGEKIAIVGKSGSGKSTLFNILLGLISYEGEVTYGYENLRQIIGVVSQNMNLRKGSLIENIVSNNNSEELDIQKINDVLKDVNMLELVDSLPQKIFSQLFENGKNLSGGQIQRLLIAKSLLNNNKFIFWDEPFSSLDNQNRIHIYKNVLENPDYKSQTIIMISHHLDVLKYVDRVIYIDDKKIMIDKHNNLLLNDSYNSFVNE
Experimental: Cleavage of His-LctA and His-pro-Lacticin. The unmodified His-LctA substrate was either directly incubated with GST-Lpd or first modified by LctM prior to incubation with the protease. Assay mixtures typically contained substrate (50-500 μg), GST-Lpd (35-70 μg) and a buffer consisting of 200 mM NaPi, pH 7.5, 200 mM Na2SO4 and 5 mM DTT. Assays were incubated at 37° C. for 12 h and analyzed by MALDI-TOF MS. Both unmodified and modified His-LctA were substrates for GST-Lpd as determined by MALDI-TOF MS and sensitivity of indicator strain Lactococcus lactis 117 towards the modified substrate after cleavage. See FIG. 83 which illustrates LctT as a bifunctional protein including the proteolytic domain.

## O=C(O)CN(CCN(CC(=O)O)CC(=O)O)CC(=O)O [EDTA]
[1]
  effect on LctM processing of His6-LctA: abolished the reaction

## His6-LctM (lacticin 481 synthetase LctM with N-terminal His6-tag) (enzyme)
[2]
  dehydration of the substrate: 4 dehydrations
[3]
  dehydration and cyclization of the substrate (ESI-FTMS, MS/MS): > 80%
[4]
  dehydration of the substrate: 4 dehydrations
[5]
  dehydration of the substrate: 4 dehydrations
[6]
  dehydration of the substrate (MS): 4 dehydrations
[7]
  dehydration of the substrate: 4 dehydrations

## mersacidin
[8]
  cytotoxic activity against MRSA: comparable cytotoxic activity

## Nc1ncnc2c1ncn2[C@@H]1O[C@H](CO[P@](=O)(O)O[P@](=O)(O)O[P@@](=O)(O)S)[C@@H](O)[C@H]1O [ATP-gamma-S]
[1]
  effect on LctM processing of His6-LctA: less efficient

## Nc1ncnc2c1ncn2[C@@H]1O[C@H](COP(=O)(O)OP(=O)(O)NP(=O)(O)O)[C@@H](O)[C@H]1O [AMP-PNP]
[1]
  effect on LctM processing of His6-LctA: completely abolished

## Nc1ncnc2c1ncn2[C@@H]1O[C@H](COP(=O)(O)OP(=O)(O)CP(=O)(O)O)[C@@H](O)[C@H]1O [AMP-PCP]
[1]
  effect on LctM processing of His6-LctA: completely abolished

B1: His6-LctA (peptide)
peptide: GSSHHHHHHSSGLVPRGSHMKEQNSFNLLQEVTESELDLILGAKGGSGVIHTISHECNMNSWQFVFTCCS
[9]
  antimicrobial activity (zone of inhibition): No antimicrobial activity was detected
[1]
  number of dehydrations after incubation with LctM: four
[1]; treatment with LctM for 1 hour
  substrate converted to M-72 product: more than 80%
[10]
  cleavage of the leader by the LctT protease domain: substrates

B2: His6-LctA modified by LctM: fully processed product, lacticin 481 fused to its leader peptide (peptide)
peptide: GSSHHHHHHSSGLVPRGSHMKEQNSFNLLQEVTESELDLILGAKGGSGVIHTISHECNMNSWQFVFTCCS
modifications: not fully specified (residues 52, 54, 61, 67, bridges)
[9]
  antimicrobial activity (zone of inhibition): No antimicrobial activity was detected
[10]
  cleavage of the leader by the LctT protease domain: substrates

B3: LctMutA: His-tag, LctA leader and mutacin II structural region (peptide)
chain: GSSHHHHHHSSGLVPRGSHMLEMKEQNSFNLLQEVTESELDLILGANRWWQGVVPTVSYECRMNSWQHVFTCC
[1]
  number of dehydrations after incubation with LctM: 4
[10]
  cleavage of the leader by the LctT protease domain: can remove the leader peptide and the His-tag
